B1: SARS-CoV-2 VHH-cMYC-12xHis-tag (VH ab8) expressed by E. coli WK6 cells from the pHENC6-VHH plasmid (VHH)
VHH: EVQLVESGGGLVQPGGSLRLSCAASGFTFDDYAMSWVRQAPGKGLEWIGRMYNNGRTSYNPSLKSLVTISRDNSKNTLYLQMNSLRAEDTATYYCARDNLGYRPSENLYGMDVWGQGTTVTVSS
notes: also called bacteria-derived VHH antibody; pHENC6-VHH-c-Myc-12xHis-tag
B2: SARS-CoV-2 VHH-cMYC-12xHis-tag (VH ab8) expressed by EXPI293F mammalian cells from pCDNA 3.4 VHH (VHH)
VHH: EVQLVESGGGLVQPGGSLRLSCAASGFTFDDYAMSWVRQAPGKGLEWIGRMYNNGRTSYNPSLKSLVTISRDNSKNTLYLQMNSLRAEDTATYYCARDNLGYRPSENLYGMDVWGQGTTVTVSS
notes: also called VHH antibodies obtained in mammalian cells; pCDNA 3.4 VHH-c-Myc-12xHis-tag

Molecular target: T1, recombinant human coronavirus SARS-CoV-2 Spike Glycoprotein RBD, isolate Wuhan-Hu-1 (Abcam), with C-terminal … (SARS-CoV-2, isolate Wuhan-Hu-1, UniProt P0DTC2 319-541)
T1 construct: also called SARS-COV2 spike protein; COVID-19 spike protein
Assay: ELISA, RBD coated, anti-c-Myc-HRP detection

| Binder | binding result |
| --- | --- |
| B1 | binds |
| B2 | binds |
